Measurements reported in patent US20140242080A1 (Hoffmann-La Roche, published 2014).

Tests used:
[1] = target: T1, human CD3 expressed on Jurkat cells (human, UniProt P07766 23-207); assay: flow cytometry on Jurkat cells
T1 construct: CD3 complex on Jurkat T cells; also called CD3 on Jurkat cells; huCD3
Description: (§1) Binding of the different bispecific constructs to CD3 on Jurkat cells (ATCC #TIB-152), and the respective tumor antigen on target cells, was determined by FACS. Briefly, cells were harvested, counted and checked for viability. 0.15-0.2 million cells per well (in PBS containing 0.1% BSA; 90 μl) were plated in a round-bottom 96-well plate and incubated with the indicated concentration of the bispecific constructs and corresponding IgG controls (10 μl) for 30 min at 4° C. […] After the incubation, cells were centrifuged (5 min, 350×g), washed with 150 μl PBS containing 0.1% BSA, resuspended and incubated for further 30 min at 4° C. with 12 μl/well of a FITC- or PE-conjugated secondary antibody. Bound constructs were detected using a FACSCantoII (Software FACS Diva). The “(scFv)₂” molecule was detected using a FITC-conjugated anti-His antibody (Lucerna, #RHIS-45F-Z). For all other molecules, a FITC- or PE-conjugated AffiniPure F(ab′)2 Fragment goat anti-human IgG Fcγ Fragment Specific (Jackson Immuno Research Lab #109-096-098/working solution 1:20, or #109-116-170/working solution 1:80, respectively) was used. Cells were washed by addition of 120 μl/well PBS containing 0.1% BSA and centrifugation at 350×g for 5 min. A second washing step was performed with 150 μl/well PBS containing 0.1% BSA. […] EC50 values were calculated using the GraphPad Prism software.
As a control, the equivalent maximum concentration of the corresponding IgGs and the background staining due to the labeled 2ndary antibody (goat anti-human FITC-conjugated AffiniPure F(ab′)2 Fragment, FcγFragment-specific, Jackson Immuno Research Lab #109-096-098) were assessed as well.

[2] = target: T2, human MCSP expressed on tumor cells (Colo-38, WM266-4, A375, MV-3, HCT-116) (human, UniProt Q6UVK1 30-2322); assay: cell-based or functional assay
[3] = target: T2, human MCSP expressed on tumor cells …; assay: flow cytometry on WM266-4 cells
Description: as §1

cynomolgus MCSP D3 [4] = target: T3, cynomolgus MCSP D3 (cynomolgus, UniProt Q6UVK1 1582-2224 (human entry), limits assumed); assay: SPR ProteOn XPR36, 25 C; IgG captured via anti-human F(ab')2, MCSP D3 as analyte
T3 construct: also called Cyno MCSP; cynomolgus homologue
T3 chain: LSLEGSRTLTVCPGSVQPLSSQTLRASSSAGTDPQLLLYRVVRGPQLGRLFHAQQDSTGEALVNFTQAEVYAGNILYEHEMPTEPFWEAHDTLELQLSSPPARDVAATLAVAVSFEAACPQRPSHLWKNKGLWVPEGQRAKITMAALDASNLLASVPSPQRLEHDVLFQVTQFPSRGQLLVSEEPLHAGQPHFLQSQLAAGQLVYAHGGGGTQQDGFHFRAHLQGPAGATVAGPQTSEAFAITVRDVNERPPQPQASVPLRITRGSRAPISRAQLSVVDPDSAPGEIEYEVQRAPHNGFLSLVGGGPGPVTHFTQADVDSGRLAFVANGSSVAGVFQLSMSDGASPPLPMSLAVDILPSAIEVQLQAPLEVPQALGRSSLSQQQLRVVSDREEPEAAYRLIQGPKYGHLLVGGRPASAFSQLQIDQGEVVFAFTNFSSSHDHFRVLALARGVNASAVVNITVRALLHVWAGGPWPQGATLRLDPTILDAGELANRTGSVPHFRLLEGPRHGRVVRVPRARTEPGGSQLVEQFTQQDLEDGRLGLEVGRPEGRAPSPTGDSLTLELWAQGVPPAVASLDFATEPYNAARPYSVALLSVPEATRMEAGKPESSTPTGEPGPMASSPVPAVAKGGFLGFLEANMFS

[5] = target: T4, hu-MCSP(D3 domain)-avi-his (human, UniProt Q6UVK1 1582-2224); assay: as above
T4 construct: Recombinant D3 domain with avi and his tags; also called human MCSP(D3 domain)-avi-his; Human MCSP D3
T4 sequence: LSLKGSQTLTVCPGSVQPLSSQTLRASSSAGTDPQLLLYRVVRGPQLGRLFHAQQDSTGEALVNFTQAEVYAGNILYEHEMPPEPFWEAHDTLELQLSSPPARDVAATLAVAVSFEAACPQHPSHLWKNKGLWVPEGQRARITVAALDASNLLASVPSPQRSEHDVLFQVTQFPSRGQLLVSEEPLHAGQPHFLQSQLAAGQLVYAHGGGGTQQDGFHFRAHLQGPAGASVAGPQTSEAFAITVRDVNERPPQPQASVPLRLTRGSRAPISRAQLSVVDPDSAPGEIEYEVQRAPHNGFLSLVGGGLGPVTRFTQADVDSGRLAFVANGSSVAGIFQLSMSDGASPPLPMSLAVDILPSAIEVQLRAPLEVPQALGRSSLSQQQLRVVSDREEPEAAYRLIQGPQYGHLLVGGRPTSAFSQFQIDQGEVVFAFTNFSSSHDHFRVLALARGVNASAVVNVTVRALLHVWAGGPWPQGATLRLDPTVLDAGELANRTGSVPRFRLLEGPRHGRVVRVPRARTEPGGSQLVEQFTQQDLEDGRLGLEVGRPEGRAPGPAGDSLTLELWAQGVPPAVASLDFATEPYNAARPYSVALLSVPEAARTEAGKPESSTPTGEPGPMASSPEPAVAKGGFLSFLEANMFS

cynomolgus MCSP D3 [6] = target: T3, cynomolgus MCSP D3; assay: SPR Biacore T200, 25 C; avidity: MCSP D3 captured via anti-Penta His, IgG as analyte
Description: (§2) For analyzing the avidity of the interaction of different anti-MCSP IgGs to human and cynomolgus MCSP D3 direct coupling of around 9,500 resonance units (RU) of the anti-Penta His antibody (Qiagen) was performed on a CM5 chip at pH 5.0 using the standard amine coupling kit (Biacore, Freiburg/Germany). Antigens were captured for 60 s at 30 nM with 10 μl/min respectively. IgGs were passed at a concentration of 0.0064-100 nM with a flowrate of 30 μl/min through the flow cells over 280 s. The dissociation was monitored for 180 s. Bulk refractive index differences were corrected for by subtracting the response obtained on reference flow cell. […] For affinity measurements IgGs were captured on a CM5 sensorchip surface with immobilized anti human Fc. Capture IgG was coupled to the sensorchip surface by direct immobilization of around 9,500 resonance units (RU) at pH 5.0 using the standard amine coupling kit (Biacore, Freiburg/Germany). IgGs are captured for 25 s at 10 nM with 30 μl/min. Human and cynomolgus MCSP D3 were passed at a concentration of 2-500 nM with a flowrate of 30 μl/min through the flow cells over 120 s. The dissociation was monitored for 60 s. […] Bulk refractive index differences were corrected for by subtracting the response obtained on reference flow cell.

[7] = target: T4, hu-MCSP(D3 domain)-avi-his; assay: as above
Description: as §2

cynomolgus MCSP D3 [8] = target: T3, cynomolgus MCSP D3; assay: SPR Biacore T200, 25 C; affinity: IgG captured via anti-human Fc, MCSP D3 as analyte
Description: as §2

[9] = target: T4, hu-MCSP(D3 domain)-avi-his; assay: as above
Description: as §2

cynomolgus MCSP D3 [10] = target: T3, cynomolgus MCSP D3; assay: ratio of ProteOn IgG KD, parent M4-3/ML2 against variant
[11] = target: T4, hu-MCSP(D3 domain)-avi-his; assay: as above

T2 sequence (Q6UVK1 30-2322): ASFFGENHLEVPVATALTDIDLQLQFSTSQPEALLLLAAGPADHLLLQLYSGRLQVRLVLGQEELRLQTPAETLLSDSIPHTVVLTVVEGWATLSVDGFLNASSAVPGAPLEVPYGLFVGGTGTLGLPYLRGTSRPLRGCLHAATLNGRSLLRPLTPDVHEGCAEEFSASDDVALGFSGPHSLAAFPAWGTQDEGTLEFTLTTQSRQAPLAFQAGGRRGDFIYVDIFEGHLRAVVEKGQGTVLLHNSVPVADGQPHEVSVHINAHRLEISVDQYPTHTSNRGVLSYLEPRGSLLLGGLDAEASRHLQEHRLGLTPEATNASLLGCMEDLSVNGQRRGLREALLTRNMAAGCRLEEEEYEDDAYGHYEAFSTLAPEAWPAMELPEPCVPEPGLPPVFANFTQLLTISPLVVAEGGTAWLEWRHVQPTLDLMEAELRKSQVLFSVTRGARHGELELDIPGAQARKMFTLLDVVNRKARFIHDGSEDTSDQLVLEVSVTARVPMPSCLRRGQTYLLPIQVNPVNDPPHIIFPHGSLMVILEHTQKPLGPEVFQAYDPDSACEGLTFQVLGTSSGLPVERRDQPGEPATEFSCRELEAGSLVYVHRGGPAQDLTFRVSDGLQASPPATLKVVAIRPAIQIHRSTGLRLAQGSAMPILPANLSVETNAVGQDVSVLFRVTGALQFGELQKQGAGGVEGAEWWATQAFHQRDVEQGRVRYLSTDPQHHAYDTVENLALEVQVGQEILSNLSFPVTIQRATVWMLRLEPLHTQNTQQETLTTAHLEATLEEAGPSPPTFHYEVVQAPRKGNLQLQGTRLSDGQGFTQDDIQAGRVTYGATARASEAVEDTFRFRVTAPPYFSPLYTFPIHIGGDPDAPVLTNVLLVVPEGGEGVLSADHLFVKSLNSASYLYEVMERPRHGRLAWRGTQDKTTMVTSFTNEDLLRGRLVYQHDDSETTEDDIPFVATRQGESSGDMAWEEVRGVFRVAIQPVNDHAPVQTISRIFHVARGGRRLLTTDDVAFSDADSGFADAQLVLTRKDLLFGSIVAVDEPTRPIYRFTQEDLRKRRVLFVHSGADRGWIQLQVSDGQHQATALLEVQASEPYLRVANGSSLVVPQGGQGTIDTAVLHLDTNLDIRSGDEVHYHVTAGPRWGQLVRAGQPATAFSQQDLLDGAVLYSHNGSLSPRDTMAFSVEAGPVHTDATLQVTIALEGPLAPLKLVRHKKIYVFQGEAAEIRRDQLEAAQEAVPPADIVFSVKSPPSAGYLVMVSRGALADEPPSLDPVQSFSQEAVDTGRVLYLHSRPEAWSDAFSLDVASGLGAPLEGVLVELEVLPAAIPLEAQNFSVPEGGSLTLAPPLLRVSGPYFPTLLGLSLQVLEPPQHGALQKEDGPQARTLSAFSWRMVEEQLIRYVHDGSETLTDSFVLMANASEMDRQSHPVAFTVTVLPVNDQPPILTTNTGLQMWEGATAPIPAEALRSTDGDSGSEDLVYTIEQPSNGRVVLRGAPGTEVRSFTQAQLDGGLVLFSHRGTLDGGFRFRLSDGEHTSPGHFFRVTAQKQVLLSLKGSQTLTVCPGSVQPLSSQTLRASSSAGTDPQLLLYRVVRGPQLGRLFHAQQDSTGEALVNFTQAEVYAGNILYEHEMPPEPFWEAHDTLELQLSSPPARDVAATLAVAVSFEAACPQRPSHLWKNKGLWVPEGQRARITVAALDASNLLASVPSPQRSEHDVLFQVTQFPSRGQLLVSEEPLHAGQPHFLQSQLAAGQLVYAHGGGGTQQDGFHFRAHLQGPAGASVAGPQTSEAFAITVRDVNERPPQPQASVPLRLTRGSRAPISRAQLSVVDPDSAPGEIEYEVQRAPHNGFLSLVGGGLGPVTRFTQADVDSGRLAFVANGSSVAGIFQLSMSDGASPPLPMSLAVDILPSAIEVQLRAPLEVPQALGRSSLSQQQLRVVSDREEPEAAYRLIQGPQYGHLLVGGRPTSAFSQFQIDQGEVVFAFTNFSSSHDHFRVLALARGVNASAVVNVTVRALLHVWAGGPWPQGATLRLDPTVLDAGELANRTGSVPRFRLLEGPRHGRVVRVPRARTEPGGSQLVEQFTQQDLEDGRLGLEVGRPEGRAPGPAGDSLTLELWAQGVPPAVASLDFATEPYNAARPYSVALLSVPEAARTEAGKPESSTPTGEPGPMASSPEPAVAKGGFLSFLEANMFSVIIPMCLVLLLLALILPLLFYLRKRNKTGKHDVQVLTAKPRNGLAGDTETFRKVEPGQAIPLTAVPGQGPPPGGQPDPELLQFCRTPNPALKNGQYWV
T1 sequence (P07766 23-207 limits assumed): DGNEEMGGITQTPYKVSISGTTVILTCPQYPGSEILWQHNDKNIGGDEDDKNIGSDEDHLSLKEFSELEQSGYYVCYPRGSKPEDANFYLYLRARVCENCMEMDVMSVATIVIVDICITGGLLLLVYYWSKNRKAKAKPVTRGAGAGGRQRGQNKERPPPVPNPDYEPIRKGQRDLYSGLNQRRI

| Binder | EC50 [1] | EC50 [pM] of T cell-mediated killing (LDH release), MV-3 cells, human PBMCs E:T 10:1, about 24 h [2] | EC50 [pM] of T cell-mediated killing (LDH release), WM266-4 cells, human PBMCs E:T 10:1, about 24 h [2] | EC50 [3] | Kd (cynomolgus MCSP D3 [4]) | Kd [5] | Kd (cynomolgus MCSP D3 [6]) | Kd [7] | Kd (cynomolgus MCSP D3 [8]) | Kd [9] | Fold increase over parent (cynomolgus MCSP D3 [10]) | Fold increase over parent [11] |
| --- | --- | --- | --- | --- | --- | --- | --- | --- | --- | --- | --- | --- |
| 2 + 1 IgG Crossfab, inverted; CL/CH1 exchange (LC007/V9) (anti-MCSP/anti-huCD3) (bispecific antibody, also called 2+1 IgG Crossfab, inverted (V9)) chain 1: DIVLTQSPSSLSASLGDRVTISCSASQGIRNYLNWYQQRPDGTVKLLIYYTSSLHSGVPSRFSGSGSGTDYSLTISNLEPEDIATYYCQQYSKLPWTFGGGTKLEIKRTVAAPSVFIFPPSDEQLKSGTASVVCLLNNFYPREAKVQWKVDNALQSGNSQESVTEQDSKDSTYSLSSTLTLSKADYEKHKVYACEVTHQGLSSPVTKSFNRGEC chain 2: EVQLQESGPGLVKPSQSLSLTCSVTGYSITSGYYWNWIRQFPGNKLEWMGYITYDGSNNYNPSLKNRISITRDTSKNQFFLKLNSVTTEDTATYYCADFDYWGQGTTLTVSSASTKGPSVFPLAPSSKSTSGGTAALGCLVKDYFPEPVTVSWNSGALTSGVHTFPAVLQSSGLYSLSSVVTVPSSSLGTQTYICNVNHKPSNTKVDKKVEPKSCDKTHTCPPCPAPEAAGGPSVFLFPPKPKDTLMISRTPEVTCVVVDVSHEDPEVKFNWYVDGVEVHNAKTKPREEQYNSTYRVVSVLTVLHQDWLNGKEYKCKVSNKALGAPIEKTISKAKGQPREPQVCTLPPSRDELTKNQVSLSCAVKGFYPSDIAVEWESNGQPENNYKTTPPVLDSDGSFFLVSKLTVDKSRWQQGNVFSCSVMHEALHNHYTQKSLSLSPGK chain 3: DIQMTQSPSSLSASVGDRVTITCRASQDIRNYLNWYQQKPGKAPKLLIYYTSRLESGVPSRFSGSGSGTDYTLTISSLQPEDFATYYCQQGNTLPWTFGQGTKVEIKSSASTKGPSVFPLAPSSKSTSGGTAALGCLVKDYFPEPVTVSWNSGALTSGVHTFPAVLQSSGLYSLSSVVTVPSSSLGTQTYICNVNHKPSNTKVDKKVEPKSC chain 4: not shown | 6100 pM | 4.1 pM | 3.7 pM | 570 pM | – | – | – | – | – | – | – | – |
| 2 + 1 IgG Crossfab; CL/CH1 exchange (LC007/anti-CD3) (anti-MCSP/anti-huCD3) (bispecific antibody, also called 2+1 IgG Crossfab (anti-CD3)) chain 1: DIVLTQSPSSLSASLGDRVTISCSASQGIRNYLNWYQQRPDGTVKLLIYYTSSLHSGVPSRFSGSGSGTDYSLTISNLEPEDIATYYCQQYSKLPWTFGGGTKLEIKRTVAAPSVFIFPPSDEQLKSGTASVVCLLNNFYPREAKVQWKVDNALQSGNSQESVTEQDSKDSTYSLSSTLTLSKADYEKHKVYACEVTHQGLSSPVTKSFNRGEC chain 2: EVQLQESGPGLVKPSQSLSLTCSVTGYSITSGYYWNWIRQFPGNKLEWMGYITYDGSNNYNPSLKNRISITRDTSKNQFFLKLNSVTTEDTATYYCADFDYWGQGTTLTVSSASTKGPSVFPLAPSSKSTSGGTAALGCLVKDYFPEPVTVSWNSGALTSGVHTFPAVLQSSGLYSLSSVVTVPSSSLGTQTYICNVNHKPSNTKVDKKVEPKSCDKTHTCPPCPAPEAAGGPSVFLFPPKPKDTLMISRTPEVTCVVVDVSHEDPEVKFNWYVDGVEVHNAKTKPREEQYNSTYRVVSVLTVLHQDWLNGKEYKCKVSNKALGAPIEKTISKAKGQPREPQVCTLPPSRDELTKNQVSLSCAVKGFYPSDIAVEWESNGQPENNYKTTPPVLDSDGSFFLVSKLTVDKSRWQQGNVFSCSVMHEALHNHYTQKSLSLSPGK chain 3: QAVVTQESALTTSPGETVTLTCRSSTGAVTTSNYANWVQEKPDHLFTGLIGGTNKRAPGVPARFSGSLIGDKAALTITGAQTEDEAIYFCALWYSNLWVFGGGTKLTVLSSASTKGPSVFPLAPSSKSTSGGTAALGCLVKDYFPEPVTVSWNSGALTSGVHTFPAVLQSSGLYSLSSVVTVPSSSLGTQTYICNVNHKPSNTKVDKKVEPKSC chain 4: not shown | 10300 pM | 11 pM | 11.3 pM | 3100 pM | – | – | – | – | – | – | – | – |
| M4-3(C1)/ML2(G3) IgG (antibody, V domains shown, Human IgG1) VH: QVQLQESGPGLVKPSQTLSLTCTVSGGSITSGYYWNWIRQHPGKGLEWIGYITFDGSNNYNPSLKSRVTISRDTSKNQFSLKLSSVTAADTAVYYCADFDYWGQGTLVTVSS VL: DIQMTQSPSSLSASVGDRVTITCRASQGIRNYLNWYQQKPGKAPKLLIYYTSSLHSGVPSRFSGSGSGTDYTLTISSLQPEDFATYYCQQYSALPWTFGQGTKVEIKR | – | – | – | – | 200 pM | 70 pM | 3.8 pM | 4.5 pM | 1400 pM | 1800 pM | 10 fold | 28.6 fold |
